Measurements from the MegaScale stability set (Tsuboyama et al. 2023).

B1: EHEE_rd2_0601 (parent)
chain: TYTYKLTDEEASRRAEDEWRNRGYDVRVRNNNGTWEVEVR

Variants of: B1
Assay: folding stability dG (cDNA display proteolysis); higher = more stable
Settings: PBS, room temperature

Variant	folding stability dG
TYTYKLTDEEASRMAEDEWRNRGYDVRVRNNNGTWEVEVR	5.01 kJ/mol
TYTYKLTDEEASRYAEDEWRNRGYDVRVRNNNGTWEVEVR	3.94 kJ/mol
TYTYKLTDEEASRHAEDEWRNRGYDVRVRNNNGTWEVEVR	5.11 kJ/mol
TYTYKLTDEEASRNAEDEWRNRGYDVRVRNNNGTWEVEVR	4.34 kJ/mol
TYTYKLTDEEASRLAEDEWRNRGYDVRVRNNNGTWEVEVR	5.59 kJ/mol
TYTYKLTDEEASRQAEDEWRNRGYDVRVRNNNGTWEVEVR	5.66 kJ/mol
TYTYKLTDEEASRTAEDEWRNRGYDVRVRNNNGTWEVEVR	4 kJ/mol
TYTYKLTDEEASRSAEDEWRNRGYDVRVRNNNGTWEVEVR	3.76 kJ/mol
TYTYKLTDEEASRWAEDEWRNRGYDVRVRNNNGTWEVEVR	4.16 kJ/mol
TYTYKLTDEEASRAAEDEWRNRGYDVRVRNNNGTWEVEVR	5.69 kJ/mol
TYTYKLTDEEASRKAEDEWRNRGYDVRVRNNNGTWEVEVR	6.39 kJ/mol
TYTYKLTDEEASRGAEDEWRNRGYDVRVRNNNGTWEVEVR	2.04 kJ/mol
TYTYKLTDEEASRDAEDEWRNRGYDVRVRNNNGTWEVEVR	2.95 kJ/mol
TYTYKLTDEEASRIAEDEWRNRGYDVRVRNNNGTWEVEVR	5.64 kJ/mol
TYTYKLTDEEASRFAEDEWRNRGYDVRVRNNNGTWEVEVR	4.74 kJ/mol
TYTYKLTDEEASRVAEDEWRNRGYDVRVRNNNGTWEVEVR	5.41 kJ/mol
TYTYKLTDEEASRPAEDEWRNRGYDVRVRNNNGTWEVEVR	-2.07 kJ/mol
TYTYKLTDEEASREAEDEWRNRGYDVRVRNNNGTWEVEVR	4.18 kJ/mol
TYTYKLTDEEASRRAEDEWVNRGYDVRVRNNNGTWEVEVR	2.76 kJ/mol
TYTYKLTDEEASRRAEDEWSNRGYDVRVRNNNGTWEVEVR	2.46 kJ/mol
TYTYKLTDEEASRRAEDEWENRGYDVRVRNNNGTWEVEVR	-0.452 kJ/mol
TYTYKLTDEEASRRAEDEWTNRGYDVRVRNNNGTWEVEVR	3.95 kJ/mol
TYTYKLTDEEASRRAEDEWMNRGYDVRVRNNNGTWEVEVR	2.59 kJ/mol
TYTYKLTDEEASRRAEDEWGNRGYDVRVRNNNGTWEVEVR	0.117 kJ/mol
TYTYKLTDEEASRRAEDEWNNRGYDVRVRNNNGTWEVEVR	1.56 kJ/mol

Variant	folding stability dG
TYTYKLTDEEASRRAEDEWWNRGYDVRVRNNNGTWEVEVR	-0.326 kJ/mol
TYTYKLTDEEASRRAEDEWHNRGYDVRVRNNNGTWEVEVR	1.86 kJ/mol
TYTYKLTDEEASRRAEDEWFNRGYDVRVRNNNGTWEVEVR	0.92 kJ/mol
TYTYKLTDEEASRRAEDEWQNRGYDVRVRNNNGTWEVEVR	1.87 kJ/mol
TYTYKLTDEEASRRAEDEWKNRGYDVRVRNNNGTWEVEVR	5.52 kJ/mol
TYTYKLTDEEASRRAEDEWLNRGYDVRVRNNNGTWEVEVR	3.78 kJ/mol
TYTYKLTDEEASRRAEDEWANRGYDVRVRNNNGTWEVEVR	2.26 kJ/mol
TYTYKLTDEEASRRAEDEWINRGYDVRVRNNNGTWEVEVR	3.57 kJ/mol
TYTYKLTDEEASRRAEDEWYNRGYDVRVRNNNGTWEVEVR	1.03 kJ/mol
TYTYKLTDEEASRRAEDRWRNRGYDVRVRNNNGTWEVEVR	5.47 kJ/mol
TYTYKLTDEEASRRAEDCWRNRGYDVRVRNNNGTWEVEVR	10.1 kJ/mol
TYTYKLTDEEASRRAEDNWRNRGYDVRVRNNNGTWEVEVR	4.3 kJ/mol
TYTYKLTDEEASRRAEDDWRNRGYDVRVRNNNGTWEVEVR	5.07 kJ/mol
TYTYKLTDEEASRRAEDGWRNRGYDVRVRNNNGTWEVEVR	3.17 kJ/mol
TYTYKLTDEEASRRAEDYWRNRGYDVRVRNNNGTWEVEVR	12.6 kJ/mol
TYTYKLTDEEASRRAEDSWRNRGYDVRVRNNNGTWEVEVR	5.21 kJ/mol
TYTYKLTDEEASRRAEDHWRNRGYDVRVRNNNGTWEVEVR	7.67 kJ/mol
TYTYKLTDEEASRRAEDTWRNRGYDVRVRNNNGTWEVEVR	5.64 kJ/mol
TYTYKLTDEEASRRAEDLWRNRGYDVRVRNNNGTWEVEVR	8.52 kJ/mol
TYTYKLTDEEASRRAEDMWRNRGYDVRVRNNNGTWEVEVR	8.48 kJ/mol
TYTYKLTDEEASRRAEDQWRNRGYDVRVRNNNGTWEVEVR	5.69 kJ/mol
TYTYKLTDEEASRRAEDVWRNRGYDVRVRNNNGTWEVEVR	6.53 kJ/mol
TYTYKLTDEEASRRAEDKWRNRGYDVRVRNNNGTWEVEVR	5.99 kJ/mol
TYTYKLTDEEASRRAEDWWRNRGYDVRVRNNNGTWEVEVR	10.2 kJ/mol
TYTYKLTDEEASRRAEDFWRNRGYDVRVRNNNGTWEVEVR	11.3 kJ/mol

Variant	folding stability dG
TYTYKLTDEEASRRAEDIWRNRGYDVRVRNNNGTWEVEVR	7.26 kJ/mol
TYTYKLTDEEASRRAEDAWRNRGYDVRVRNNNGTWEVEVR	6.05 kJ/mol
TYTYKLTDEEASRRAEMEWRNRGYDVRVRNNNGTWEVEVR	8.84 kJ/mol
TYTYKLTDEEASRRAEGEWRNRGYDVRVRNNNGTWEVEVR	5.19 kJ/mol
TYTYKLTDEEASRRAEQEWRNRGYDVRVRNNNGTWEVEVR	8.71 kJ/mol
TYTYKLTDEEASRRAESEWRNRGYDVRVRNNNGTWEVEVR	7.88 kJ/mol
TYTYKLTDEEASRRAEREWRNRGYDVRVRNNNGTWEVEVR	8.78 kJ/mol
TYTYKLTDEEASRRAENEWRNRGYDVRVRNNNGTWEVEVR	7.45 kJ/mol
TYTYKLTDEEASRRAEYEWRNRGYDVRVRNNNGTWEVEVR	7.39 kJ/mol
TYTYKLTDEEASRRAETEWRNRGYDVRVRNNNGTWEVEVR	8.34 kJ/mol
TYTYKLTDEEASRRAEHEWRNRGYDVRVRNNNGTWEVEVR	7.04 kJ/mol
TYTYKLTDEEASRRAEFEWRNRGYDVRVRNNNGTWEVEVR	7.77 kJ/mol
TYTYKLTDEEASRRAEVEWRNRGYDVRVRNNNGTWEVEVR	8.72 kJ/mol
TYTYKLTDEEASRRAEWEWRNRGYDVRVRNNNGTWEVEVR	8.01 kJ/mol
TYTYKLTDEEASRRAEIEWRNRGYDVRVRNNNGTWEVEVR	9.06 kJ/mol
TYTYKLTDEEASRRAEEEWRNRGYDVRVRNNNGTWEVEVR	8.31 kJ/mol
TYTYKLTDEEASRRAEKEWRNRGYDVRVRNNNGTWEVEVR	8.45 kJ/mol
TYTYKLTDEEASRRAEAEWRNRGYDVRVRNNNGTWEVEVR	9.06 kJ/mol
TYTYKLTDEEASRRAELEWRNRGYDVRVRNNNGTWEVEVR	8.62 kJ/mol
TYTYKLTDEEASRRAMDEWRNRGYDVRVRNNNGTWEVEVR	7.05 kJ/mol
TYTYKLTDEEASRRAYDEWRNRGYDVRVRNNNGTWEVEVR	7.79 kJ/mol
TYTYKLTDEEASRRAKDEWRNRGYDVRVRNNNGTWEVEVR	3.25 kJ/mol
TYTYKLTDEEASRRAFDEWRNRGYDVRVRNNNGTWEVEVR	7.25 kJ/mol
TYTYKLTDEEASRRAADEWRNRGYDVRVRNNNGTWEVEVR	10.7 kJ/mol
TYTYKLTDEEASRRATDEWRNRGYDVRVRNNNGTWEVEVR	5.41 kJ/mol

Variant	folding stability dG
TYTYKLTDEEASRRAVDEWRNRGYDVRVRNNNGTWEVEVR	8.37 kJ/mol
TYTYKLTDEEASRRANDEWRNRGYDVRVRNNNGTWEVEVR	1.4 kJ/mol
TYTYKLTDEEASRRAQDEWRNRGYDVRVRNNNGTWEVEVR	6.09 kJ/mol
TYTYKLTDEEASRRAWDEWRNRGYDVRVRNNNGTWEVEVR	5.44 kJ/mol
TYTYKLTDEEASRRAGDEWRNRGYDVRVRNNNGTWEVEVR	5.85 kJ/mol
TYTYKLTDEEASRRARDEWRNRGYDVRVRNNNGTWEVEVR	4.99 kJ/mol
TYTYKLTDEEASRRALDEWRNRGYDVRVRNNNGTWEVEVR	6.45 kJ/mol
TYTYKLTDEEASRRAHDEWRNRGYDVRVRNNNGTWEVEVR	4.5 kJ/mol
TYTYKLTDEEASRRAPDEWRNRGYDVRVRNNNGTWEVEVR	-0.142 kJ/mol
TYTYKLTDEEASRRAIDEWRNRGYDVRVRNNNGTWEVEVR	7.61 kJ/mol
TYTYKLTDEEASRRASDEWRNRGYDVRVRNNNGTWEVEVR	6.17 kJ/mol
TYTYKLTDEEASRRADDEWRNRGYDVRVRNNNGTWEVEVR	-1 kJ/mol
TYTYKLTDEEASRRAEDEARNRGYDVRVRNNNGTWEVEVR	0.556 kJ/mol
TYTYKLTDEEASRRAEDEERNRGYDVRVRNNNGTWEVEVR	-2.1 kJ/mol
TYTYKLTDEEASRRAEDELRNRGYDVRVRNNNGTWEVEVR	3.7 kJ/mol
TYTYKLTDEEASRRAEDEHRNRGYDVRVRNNNGTWEVEVR	-1.66 kJ/mol
TYTYKLTDEEASRRAEDEMRNRGYDVRVRNNNGTWEVEVR	1.87 kJ/mol
TYTYKLTDEEASRRAEDEYRNRGYDVRVRNNNGTWEVEVR	3.26 kJ/mol
TYTYKLTDEEASRRAEDEIRNRGYDVRVRNNNGTWEVEVR	-2.16 kJ/mol
TYTYKLTDEEASRRAEDENRNRGYDVRVRNNNGTWEVEVR	-3.46 kJ/mol
TYTYKLTDEEASRRAEDEFRNRGYDVRVRNNNGTWEVEVR	4.34 kJ/mol
TYTYKLTDEEASPRAEDEWRNRGYDVRVRNNNGTWEVEVR	-3.99 kJ/mol
TYTYKLTDEEASMRAEDEWRNRGYDVRVRNNNGTWEVEVR	4.13 kJ/mol
TYTYKLTDEEASVRAEDEWRNRGYDVRVRNNNGTWEVEVR	3.2 kJ/mol
TYTYKLTDEEASYRAEDEWRNRGYDVRVRNNNGTWEVEVR	3.37 kJ/mol

Variant	folding stability dG
TYTYKLTDEEASTRAEDEWRNRGYDVRVRNNNGTWEVEVR	2.44 kJ/mol
TYTYKLTDEEASQRAEDEWRNRGYDVRVRNNNGTWEVEVR	4.05 kJ/mol
TYTYKLTDEEASWRAEDEWRNRGYDVRVRNNNGTWEVEVR	3.52 kJ/mol
TYTYKLTDEEASSRAEDEWRNRGYDVRVRNNNGTWEVEVR	2.31 kJ/mol
TYTYKLTDEEASNRAEDEWRNRGYDVRVRNNNGTWEVEVR	3.21 kJ/mol
TYTYKLTDEEASRRAEDEWRARGYDVRVRNNNGTWEVEVR	7.6 kJ/mol
TYTYKLTDEEASRRAEDEWRDRGYDVRVRNNNGTWEVEVR	4.87 kJ/mol
TYTYKLTDEEASRRNEDEWRNRGYDVRVRNNNGTWEVEVR	0.301 kJ/mol
TYTYKLTDEEASRRIEDEWRNRGYDVRVRNNNGTWEVEVR	9.2 kJ/mol
TYTYKLTDEEASRRLEDEWRNRGYDVRVRNNNGTWEVEVR	10.3 kJ/mol
TYTYKLTDEEASRRYEDEWRNRGYDVRVRNNNGTWEVEVR	5.84 kJ/mol
TYTYKLTDEEASRRKEDEWRNRGYDVRVRNNNGTWEVEVR	5.74 kJ/mol
TYTYKLTDEEASRRQEDEWRNRGYDVRVRNNNGTWEVEVR	3.3 kJ/mol
TYTYKLTDEEASRRGEDEWRNRGYDVRVRNNNGTWEVEVR	-1.55 kJ/mol
TYTYKLTDEEASRRSEDEWRNRGYDVRVRNNNGTWEVEVR	2.75 kJ/mol
TYTYKLTDEEASRRFEDEWRNRGYDVRVRNNNGTWEVEVR	7.72 kJ/mol
TYTYKLTDEEASRRPEDEWRNRGYDVRVRNNNGTWEVEVR	-3.11 kJ/mol
TYTYKLTDEEASRRMEDEWRNRGYDVRVRNNNGTWEVEVR	8.92 kJ/mol
TYTYKLTDEEASRRWEDEWRNRGYDVRVRNNNGTWEVEVR	5.7 kJ/mol
TYTYKLTDEEASRRTEDEWRNRGYDVRVRNNNGTWEVEVR	5.96 kJ/mol
TYTYKLTDEEASRRREDEWRNRGYDVRVRNNNGTWEVEVR	1.85 kJ/mol
TYTYKLTDEEASRRDEDEWRNRGYDVRVRNNNGTWEVEVR	2.53 kJ/mol
TYTYKLTDEEASRRHEDEWRNRGYDVRVRNNNGTWEVEVR	5.99 kJ/mol
TYTYKLTDEEASRREEDEWRNRGYDVRVRNNNGTWEVEVR	3.45 kJ/mol
TYTYKLTDEEASRRVEDEWRNRGYDVRVRNNNGTWEVEVR	9.23 kJ/mol
